Measured values: paper PMC10382551, “Affinity-matured homotypic interactions induce spectrum of PfCSP structures that influence protection from malaria infection” (Nature Communications, 2023)
Ends that are not written are not given here.

Columns and labels:
Assay in all cases: BLI
Conditions in all cases: both partners purified
[1] = molecular target: T1, NPNA8 peptide (Plasmodium falciparum (isolate 3D7)., not fully specified)
T1 construct: source: synthetic peptide (InnoPep Inc)
T1 chain: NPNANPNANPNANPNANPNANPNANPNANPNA

[2] = molecular target: T2, NPNA4 peptide (Plasmodium falciparum (isolate 3D7)., not fully specified)
T2 construct: source: synthetic peptide (InnoPep Inc)
T2 chain: NPNANPNANPNANPNA

[3] = molecular target: T3, NPNA8 peptide (Plasmodium falciparum (isolate 3D7)., not fully specified)
T3 construct: source: synthetic peptide (InnoPep Inc, purity >=97%)
T3 chain: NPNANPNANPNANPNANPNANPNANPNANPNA

[4] = molecular target: T4, NPNA4 peptide (Plasmodium falciparum (isolate 3D7)., not fully specified)
T4 construct: source: synthetic peptide (InnoPep Inc, purity >=97%)
T4 chain: NPNANPNANPNANPNA

B1: 356 Fab (Fab, V domains shown)
VH: QVQLVESGGGVVQPGRSLRLSCAASGFTFRNFGMHWVRQTPGKGLEWVAVIWHDGSNKFYADSVEGRFTISRDNSKNMIYLQMNSLRVEDTAIYYCARDSLFYDHDNSGYYGYWGQGTLVTVSS
VL: QIVMTQSPATVSVSPGERATLSCRASRSVTSKLAWYQQKPGQAPRLLIYGASTRATGIPARFSGSGSGTEFTLTISSLQSEDFAVYFCQQYNNGFTFGPGTKVDFK
notes: also called mAb 356; source: ExpiCHO cells, purified (mAb Select PrismA or Capture Select, SEC)
Kd [1]: 6.4 nM | koff [1]: 0.00056 s⁻¹ | kon [1]: 87000 M⁻¹ s⁻¹ | Kd [2]: 123 nM | koff [2]: 0.013 s⁻¹ | kon [2]: 80000 M⁻¹ s⁻¹

B2: 356R Fab (Fab, V domains shown)
VH: QVQLVESGGGVVQPGRSLRLSCAASGFTFSSYGMHWVRQTPGKGLEWVAVIWHDGSNKFYADSVKGRFTISRDNSKNMIYLQMNSLRVEDTAIYYCARDSLFYDHDNSGYYGYWGQGTLVTVSS
VL: EIVMTQSPATVSVSPGERATLSCRASQSVTSKLAWYQQKPGQAPRLLIYGASTRATGIPARFSGSGSGTEFTLTISSLQSEDFAVYFCQQYNNGFTFGPGTKVDFK
notes: also called Fab356R; germline-reverted 356; source: ExpiCHO cells, purified (mAb Select PrismA or Capture Select, SEC)
Kd [3]: 124 nM | Kd [4]: 65 nM

B3: 356 Fab (Fab, V domains shown)
VH: QVQLVESGGGVVQPGRSLRLSCAASGFTFRNFGMHWVRQTPGKGLEWVAVIWHDGSNKFYADSVEGRFTISRDNSKNMIYLQMNSLRVEDTAIYYCARDSLFYDHDNSGYYGYWGQGTLVTVSS
VL: QIVMTQSPATVSVSPGERATLSCRASRSVTSKLAWYQQKPGQAPRLLIYGASTRATGIPARFSGSGSGTEFTLTISSLQSEDFAVYFCQQYNNGFTFGPGTKVDFK
notes: source: ExpiCHO cells, purified (mAb Select PrismA or Capture Select, SEC)
Kd [3]: 6.35 nM | Kd [4]: 123 nM

B4: 356R Fab (Fab, V domains shown)
VH: QVQLVESGGGVVQPGRSLRLSCAASGFTFSSYGMHWVRQTPGKGLEWVAVIWHDGSNKFYADSVKGRFTISRDNSKNMIYLQMNSLRVEDTAIYYCARDSLFYDHDNSGYYGYWGQGTLVTVSS
VL: EIVMTQSPATVSVSPGERATLSCRASQSVTSKLAWYQQKPGQAPRLLIYGASTRATGIPARFSGSGSGTEFTLTISSLQSEDFAVYFCQQYNNGFTFGPGTKVDFK
notes: also called germline-reverted 356; source: ExpiCHO cells, purified (mAb Select PrismA or Capture Select, SEC)
Kd [1]: 124 nM | koff [1]: 0.017 s⁻¹ | kon [1]: 79000 M⁻¹ s⁻¹ | Kd [2]: 79 nM | koff [2]: 0.03 s⁻¹ | kon [2]: 560000 M⁻¹ s⁻¹

B5: 364 Fab (Fab, V domains shown)
VH: QVQLVESGGGVVQPGGSLRLSCAASGFTFSGYGMHWVRQVPGKGLEWVAIIWFDGSQKYYADSVQGRFTISRDNSKKTLFLRMNSLRAEDTAVYYCAKVHDDEPTQDYWGQGTLVTVSS
VL: DIQMTQSPSTLSASVGDRVTITCRASQGISTSLAWYQQKPGKAPKLLIYKASSLESGVPSRFSGSGSGTEFTLTITSLQPEDFATYYCQQYKRYWTFGQGTKVEIK
notes: also called mAb 364; source: ExpiCHO cells, purified (mAb Select PrismA or Capture Select, SEC)
Kd [1]: 4.9 nM | koff [1]: 0.00027 s⁻¹ | kon [1]: 65000 M⁻¹ s⁻¹ | Kd [2]: 260 nM | koff [2]: 0.0027 s⁻¹ | kon [2]: 43000 M⁻¹ s⁻¹

B6: 364 Fab (Fab, V domains shown)
VH: QVQLVESGGGVVQPGGSLRLSCAASGFTFSGYGMHWVRQVPGKGLEWVAIIWFDGSQKYYADSVQGRFTISRDNSKKTLFLRMNSLRAEDTAVYYCAKVHDDEPTQDYWGQGTLVTVSS
VL: DIQMTQSPSTLSASVGDRVTITCRASQGISTSLAWYQQKPGKAPKLLIYKASSLESGVPSRFSGSGSGTEFTLTITSLQPEDFATYYCQQYKRYWTFGQGTKVEIK
notes: as for B3
Kd [3]: 4.88 nM | Kd [4]: 260 nM

B7: 337 Fab (Fab, V domains shown)
VH: QVQLVESGGGVVQPGRSLRLSCAASGFSFSTYGMHWVRQAPGKGLEWVALIWHDGSKKFYSESVRGRFTISRDNSMDTLYLQMSSLRAEDTAVYYCARDGADYFDSTGGAFDIWGQGTMVIVSS
VL: EIVMTQSPATLSVSPGERATLSCRASQSVSSNLAWYQQKPGQAPRLLIYGASTRATGIPARFSGSGSGTEFTLTISSLQSEDFATYYCQQYKTWWTFGQGTKVEIK
notes: also called mAb 337; source: ExpiCHO cells, purified (mAb Select PrismA or Capture Select, SEC)
Kd [1]: 39.4 nM | koff [1]: 0.0035 s⁻¹ | kon [1]: 66000 M⁻¹ s⁻¹ | Kd [2]: 36.9 nM | koff [2]: 0.007 s⁻¹ | kon [2]: 130000 M⁻¹ s⁻¹

B8: 337 Fab (Fab, V domains shown)
VH: QVQLVESGGGVVQPGRSLRLSCAASGFSFSTYGMHWVRQAPGKGLEWVALIWHDGSKKFYSESVRGRFTISRDNSMDTLYLQMSSLRAEDTAVYYCARDGADYFDSTGGAFDIWGQGTMVIVSS
VL: EIVMTQSPATLSVSPGERATLSCRASQSVSSNLAWYQQKPGQAPRLLIYGASTRATGIPARFSGSGSGTEFTLTISSLQSEDFATYYCQQYKTWWTFGQGTKVEIK
notes: as for B3
Kd [3]: 39.4 nM | Kd [4]: 36.9 nM

B9: 227 Fab (Fab, V domains shown)
VH: QVQLVQSGGGVVQPGRSLRLSCVTSGFTFPAFGMHWVRQAPGKGLEWVAVIWYDGSKKYYADSVRGRFTISRDNSRNTLYLQMHSLRAEDTAVYYCARVKNYESSGYSQCLDYWGQGVLVTVAS
VL: QSVLTQPPSVSGAPGQRVTISCTGSSSNIGAGYDVHWYQQLPGTAPKLLIYGNGNRPSGVPDRFSGSKSGTSVSLAITGLQAEDEADYYCQSYDSSLSAFVFGTGTKVTVL
notes: also called mAb 227; source: ExpiCHO cells, purified (mAb Select PrismA or Capture Select, SEC)
Kd [1]: 80.3 nM | koff [1]: 0.0035 s⁻¹ | kon [1]: 40000 M⁻¹ s⁻¹ | Kd [2]: 37.5 nM | koff [2]: 0.0058 s⁻¹ | kon [2]: 130000 M⁻¹ s⁻¹

B10: 227 Fab (Fab, V domains shown)
VH: QVQLVQSGGGVVQPGRSLRLSCVTSGFTFPAFGMHWVRQAPGKGLEWVAVIWYDGSKKYYADSVRGRFTISRDNSRNTLYLQMHSLRAEDTAVYYCARVKNYESSGYSQCLDYWGQGVLVTVAS
VL: QSVLTQPPSVSGAPGQRVTISCTGSSSNIGAGYDVHWYQQLPGTAPKLLIYGNGNRPSGVPDRFSGSKSGTSVSLAITGLQAEDEADYYCQSYDSSLSAFVFGTGTKVTVL
notes: as for B3
Kd [3]: 23.7 nM | Kd [4]: 46.3 nM

B11: 239 Fab (Fab, V domains shown)
VH: QVQLVESGGGVVQPGRSLRLSCAASRLTFRNFGMHWVRQTPGKGLEWVAVIWHDGSNKFYADSVEGRFTISRDNSKNTLYLQMNSLRDEDTAIYYCAKDWGGASDRVFDYWGRGTLVIVSS
VL: DIQMTQSPSTLSASVGDRVTITCRASQSVSTSLAWYQQKPGKAPNLLIYQASTLYRGVPSRFSGSGSGTEFTLTIGSLQPDDFATYYCQHYNSYSRITFGQGTRLEIK
notes: also called mAb 239; source: ExpiCHO cells, purified (mAb Select PrismA or Capture Select, SEC)
Kd [1]: 7.2 nM | koff [1]: 0.00056 s⁻¹ | kon [1]: 83000 M⁻¹ s⁻¹ | Kd [2]: 44.7 nM | koff [2]: 0.0063 s⁻¹ | kon [2]: 110000 M⁻¹ s⁻¹

B12: 239 Fab (Fab, V domains shown)
VH: QVQLVESGGGVVQPGRSLRLSCAASRLTFRNFGMHWVRQTPGKGLEWVAVIWHDGSNKFYADSVEGRFTISRDNSKNTLYLQMNSLRDEDTAIYYCAKDWGGASDRVFDYWGRGTLVIVSS
VL: DIQMTQSPSTLSASVGDRVTITCRASQSVSTSLAWYQQKPGKAPNLLIYQASTLYRGVPSRFSGSGSGTEFTLTIGSLQPDDFATYYCQHYNSYSRITFGQGTRLEIK
notes: as for B3
Kd [3]: 7.22 nM | Kd [4]: 44.7 nM

B13: 239R Fab (Fab, V domains shown)
VH: QVQLVESGGGVVQPGRSLRLSCAASRLTFSSYGMHWVRQTPGKGLEWVAVIWHDGSNKFYADSVKGRFTISRDNSKNTLYLQMNSLRDEDTAIYYCAKDWGGASDRVFDYWGRGTLVIVSS
VL: DIQMTQSPSTLSASVGDRVTITCRASQSVSTSLAWYQQKPGKAPNLLIYQASTLYTGVPSRFSGSGSGTEFTLTIGSLQPDDFATYYCQHYNSYSRITFGQGTRLEIK
notes: also called germline-reverted 239; source: ExpiCHO cells, purified (mAb Select PrismA or Capture Select, SEC)
Kd [1]: 205 nM | koff [1]: 0.022 s⁻¹ | kon [1]: 120000 M⁻¹ s⁻¹ | Kd [2]: 165 nM | koff [2]: 0.033 s⁻¹ | kon [2]: 410000 M⁻¹ s⁻¹

B14: 334 Fab (Fab, V domains shown)
VH: QVQLVESGGGVVQPGRSLTLSCAASGFTFSNYGMHWVRQTPGKGLAWVAIIWYDGSKTYYEDSVKGRFTISRDNSKNTLYLQMNSLRVDDTAVYYCARVRHSSSRHGSAFDLWGQGTLVTVSS
VL: VIQMTQSPSTLSASVGDRVTITCRASQSVSTWLAWYQQKPGQGPKLLIYEASSLESGVPSRFSGSGSGTEFTLTISSLQPDDFATYYCQQYNSYSFWTFGQGTKVEIK
notes: also called mAb 334; source: ExpiCHO cells, purified (mAb Select PrismA or Capture Select, SEC)
Kd [1]: 22.4 nM | koff [1]: 0.0013 s⁻¹ | kon [1]: 52000 M⁻¹ s⁻¹ | Kd [2]: 49.9 nM | koff [2]: 0.0021 s⁻¹ | kon [2]: 53000 M⁻¹ s⁻¹

B15: 334 Fab (Fab, V domains shown)
VH: QVQLVESGGGVVQPGRSLTLSCAASGFTFSNYGMHWVRQTPGKGLAWVAIIWYDGSKTYYEDSVKGRFTISRDNSKNTLYLQMNSLRVDDTAVYYCARVRHSSSRHGSAFDLWGQGTLVTVSS
VL: VIQMTQSPSTLSASVGDRVTITCRASQSVSTWLAWYQQKPGQGPKLLIYEASSLESGVPSRFSGSGSGTEFTLTISSLQPDDFATYYCQQYNSYSFWTFGQGTKVEIK
notes: as for B3
Kd [3]: 22.4 nM | Kd [4]: 49.9 nM

B16: 311 Fab (Fab, V domains shown)
VH: QVQLVESGGGVVPPGRSLRLSCATSGFTFSNYGMHWVRQAPGKGLEWVAIIWYDGSRNFYAASVEGRFTISRDNSKNTLYLQMNSLRVEDTAVYYCARAAYYDTSGYGDYWGQGTLVTVSS
VL: QSVLTQPPSVSGAPGQTVTISCTGGSSNIGAGYDVHWYQQLPGTAPKLLIYGNINRPSGVPDRFSGSKSGTSASLAITGLQAEDEADYYCQSYDRRLSGSWVFGGGTKLTVL
notes: also called mAb 311; source: ExpiCHO cells, purified (mAb Select PrismA or Capture Select, SEC)
Kd [1]: 6.1 nM | koff [1]: 0.00025 s⁻¹ | kon [1]: 66000 M⁻¹ s⁻¹ | Kd [2]: 212 nM | koff [2]: 0.0041 s⁻¹ | kon [2]: 27000 M⁻¹ s⁻¹

B17: 311R Fab (Fab, V domains shown)
VH: QVQLVESGGGVVPPGRSLRLSCATSGFTFSSYGMHWVRQAPGKGLEWVAIIWYDGSNKFYAASVKGRFTISRDNSKNTLYLQMNSLRVEDTAVYYCARAAYYDTSGYGDYWGQGTLVTVSS
VL: QSVLTQPPSVSGAPGQTVTISCTGGSSNIGAGYDVHWYQQLPGTAPKLLIYGNINRPSGVPDRFSGSKSGTSASLAITGLQAEDEADYYCQSYDSSLSGSWVFGGGTKLTVL
notes: also called germline-reverted 311; source: ExpiCHO cells, purified (mAb Select PrismA or Capture Select, SEC)
Kd [1]: 211 nM | koff [1]: 0.0051 s⁻¹ | kon [1]: 71000 M⁻¹ s⁻¹ | Kd [2]: 67.4 nM | koff [2]: 0.0088 s⁻¹ | kon [2]: 71000 M⁻¹ s⁻¹

B18: 311 Fab (Fab, V domains shown)
VH: QVQLVESGGGVVPPGRSLRLSCATSGFTFSNYGMHWVRQAPGKGLEWVAIIWYDGSRNFYAASVEGRFTISRDNSKNTLYLQMNSLRVEDTAVYYCARAAYYDTSGYGDYWGQGTLVTVSS
VL: QSVLTQPPSVSGAPGQTVTISCTGGSSNIGAGYDVHWYQQLPGTAPKLLIYGNINRPSGVPDRFSGSKSGTSASLAITGLQAEDEADYYCQSYDRRLSGSWVFGGGTKLTVL
notes: as for B3
Kd [3]: 6.11 nM | Kd [4]: 212 nM
